The nature of this series: label from the status in PepcDB records.
Consider “MVLKERHKKICLLPSYSRLAHYPGLLMLTTLIYRSHIRGDEPVKKIEEMVSIANRRNMRSDVTGILLFNGSHFFQLLEGPEEQVQMIYRAICQDPRHYNIVELLCDYAPARRFGKAGMELFDLRLHERDDVLQAVFDKGTSKFQLTYDDRALQFFRTFVLATEQSTYFEIPAEDSWLFIADGSDKELDSCTLSSNINDHFAFHPIVDPLSRRIIAFEAIVQKNEDSPSAIAVGQRKDEEIYTADLKSKALAFAMAHALKLGDKMISINLLPMTLVNKPDAVSFLLDEIKANALVPEQIIVEFTESEVISRFDEFAEAVKSLKAAGISVAIDHFGAGFAGLLLLSRFQPDRIKISQELITNVHKSGPRQAIIQAIMKCCTSLEIQVSAMGVATPEEWMWLESAGIEMFQGDLFSKAKLNGIPSVAWPEKK”, for which the protein production entry is recorded as “failed”.
Regarding “MVLVILDFVVEWRDRVMVRWWSLLLDQGIEWSVKVVKRLLDQGVEWFDMIRGCQSSPLLLLAIKMCTEATKSSQIIMMGVNLRSLKDGFIDKGNSRVHLMANMRKANSLDDDSKPDIHSRDRDPHNYTTS”, the protein production entry was “failed”.
Regarding “MVMARNRNSNQLASHGAQAALDQMKYEIAQEFGVQLGADTSSRANGSVGGEITKRLVAMAEQQLGGGYTRLEHHHHHH”, the protein production entry is “not failed”.
Under “MVMMFIGIDDTDSPNKYCTTYIATLLIEELKGCGYSVDMPKLIRMNPMVKYKTRGNGGVAIHILDELYSKDKEEIKNITISLVEKYTDFECENTNPGIVFLDEAKYKENREKLTNYYKKVLYDIVSVDYAEKFILKVGGEFIKYKLGRGIIGALGAISSTPPYTYELLAYRKKEMWGKKREIDEKSVIEMDKETFPYTFDNYDYENEKILIAPNTPCPVLFGIRGIDAEILLKAMHKIEGEKPERFMIFKTNHGTDVHLRKMNIKDIYPNTGVIVYGRVVEEPRDIEGGHVIFKLSDGTGEIDCMAYEPTKGFRDIIRKLIVGDYIAVYGTVREKPLGINIEKIKILKLEKKFVKDKRCPYCGGTLKAKGKKAGYKCKKCKKTIAYDEIKMIEVERDLKTGFYEVPGSARRHLSKPIQLIDLI” stands “not failed”; under “MVMNKLILFGSIFFKCWQQNRISISAGYLTYNTMLALVPLVMVVFSVFTFFPIFTEATELLKTFVYDNFAPNAGNVVEEYVELFVSNSQKMGLVSMLGLFIVAVMLISSIDQSLNDIWHNTRKRSLLLSFLLYILILIFAPLLAGASIAITTYIMSFEVFSENGIFSFSHYLLEYAPFLLVWLLFTLVYWIVPNTTVAFRHATIGALFAASFFTLGKQAFIWYVVTFPSYQAIYGTLAVLPIMIVWIHLSWQVVLLGGQFAAVLKEINMLKENER”, “not failed”; under “MVNNDTLSGDVYTASEAKQVQNVSYGTIVNVRPVQIQGGDDSNVIGAIGGAVLGGFLGNTVGGGTGRSLATAAGAVAGGVTGQGVQSAMNKTQGVELEIRKDDGNTIMVVQKQGNTRFSPGQRVVLASNGSQVTVSPRLEHHHHHH”, “failed”.
In the case of “MVNPIATGILVLAALYFARSILMPLAFSLFVIALAWPIQMALQRRIPRLAALLITLLLVVLVIVIVGSAIVWGLGELSQWLFYNTGRLQAIYASWTDWLEGHGIAIVSPLGELFSISRLVGLTHSLVTRLNSVAGFAVLTFIFVMLGLLEAEDLQRRLRSSLAQPQGEMLLHIGREIAGKIRRFMVVRSLACILTGLVVWAFTLVAGLELASAWAAIAFALNYIPFIGPLMATIFPTLFAIAQSGSWQLALIVFVGLNVIQFAIGSYLEPFLTGASLAISPFAVMFAVFFWSFMWGVPGAFIGVPILIVVVTWCAHEQSTRWIATLLSGGRQST” it was “failed”.
In the case of “MVNQPLVSIIIPAYRAENTIAFTVRSVLAQTYDHWQVAIGVDDQVDYLQLLAEQGINDPRLKQVFTGGIGSGEAIARNKAVSICDGDILANLDADDAFASDRLEKLVPLAEKYGVAIDNTGVYNSELVLYKQPFPQRQALNFATAADILSPRIPFFPVFQRQLLGDGWTKVPFAADVLFNLELLSRTEKVAIHPEPLYRYYKRDNSITQSANAFETAEKAYLTILSLLDEGALTLTDAIRQAARQEFSENLALNKVFRRYMEEGRCQNLEQFLDMTNNGQKIEFVSNLNLEHHHHHH” it was “not failed”.
“MVNTRTRMSAIVATLGLVGSLALATASADESRTSGSAAQIALTEVARAQNPTAGAAGPQDTVWIAERAGTVRVLGDDGLGEPVLDISDETTTDGERGLLGLAFDERFAHLYLSYTDLEGTSTVDEFAVQDGTVREDTRRTVLTQEQPESNHNGGAITFGPDGYLYIALGDGGGGGDPQGNGQKLDTLLGKLLRIDPQGGDPYAIPEDNPFADDPDARGEIWSYGLRNPWRFSFDAGSGDLLIGDVGQSDWEEIDWAPASSPGGENYGWSQMEGTHPFRGGTEPANHVPPIHEYDRTGLGCSVTGGYVYRGEAVPGLAGQYVYSDYCDGTLRSLEIEDGRVTGEHDLGVNGGEVVSFAQDGDGELYVLAIGGTVSRVDPA”: the protein production result is reported as “failed”.
On to “MVNVFYEEAGALKVGSILTDNTTSLQIESAHGKRSKIKAALVLLRFENPPMHGFMQQAQEKAADIDVNFLWECCEENREFTGQELAGDYFGHTPDPLETAAILILLSQNPIYFHKKGVGRFKAAPPEILQAALASREKKRLAEEKQAGYVQQLMAFELPDTFRPLLDDLLYKPDKNTIEWKALETACDATRLSVPRLLERCGAIPSTHDYHYNQFLYEHFPEGIDTDAYPADFHLLDPEDLPVAGVKAFSIDDATTTEIDDAFSVTPLNFGSFRIGIHIATPALGVAPHSLLDKFAAKRLSTVYLPGRKITMLPESVIQHFTLGEAHHRPVLSLYLEVADDFTVTRTFSRIETIEVSTNLRLDSLERQFNEITLRENQTDYPFAHELRLLWNFSCKMEKLRGKDQDINSEKIDYSFIIDQDRVSVYERRRGAPIDKVVSELMIFANAEWGKQLADAGYAGIYRSQGNGKVKMSLSPAPHQGLGVSQYAWSSSPMRRYVDLINQRQLIALVSGNPPPYTREDDTLLIAMRDFEMAYATYAEFQRGMERYWCLRWLLQENISTSGAIVIKENMIKLDRLPLIVRIPSLPELAPGTLVAVGVSQIDLIDRSLNASFLGKSEG”, for which the protein production entry was “failed”.
In the case of “MVPLPRSMRVLHWLTVLCLVMAASLILLRAELEGRALRQWLLEGHRHFGLMVLLLFVLRVSLRLRLRALPPGPPSPLIMRLAAGGTHVAMYALMLALPLIGWSLSNAYGKTVYLFGITLPNLVAADEDLADTLGTWHLNAAWALLALVAVHIVAALVHHLVLRDGLLHRVLPGKHHR” it was “failed”.
In the case of “MVPRFATLGRIPKGVWVLGGVSLLMDVSSEMIHSLLPLFMATTLGASVIIIGLIEGLAEATALILKVFSGAISDYVGKRKGLALLGYGLGALSKPLFAIAPTAGVVFSARMIDRVGKGIRGAPRDALVADVTPPEIRGAAYGLRQALDTVGAFLGPLLAVLLMFIWANDFHAIFWVAVIPAVLSILLLGFGLQEPKSAIAHKRSNPLKRENLKKLSAAYWWVVAIGSIFTLARFSEAFLVLRAQQMEIPLYTIPLVMVAMNLVYSLTAYPFGKLSDSMSHSKLLQWGLLVLILADIVLALSGHWSTLLIGVALWGIHMGMTQGLLAAMVAHTAPPELRGTAFGMFNLMSGLALLLASTGAGVLWETFGAASTFYAGAIICVVTLIGMRVMPSAYRQD” it was “not failed”; in that of “MVPSASDAWRTALRDLRETLPERTVQNWLDPIQPLDLSTDEGSPTLTLQVPTPFGIQYLRSRFQRSIRQAVSEAVGEPTDVTYQVAPEEERPDEIATDSGSSGSAPDEPDASSSPQDRPSSAPSSDQAGRSSTSPRPSEPVSSSSPAGREAINQSPSPDASTSGGASSPTGPTTPRPSSPDVADVSDAGRTDDASAPSPPQTDAGSPDERSALYEQAKQHLRPEYTFDEFVEGDGNRLARSAAFAVAQEPGSTNYNPLLVYGGVGLGKTHLAQAVANYALEHNTAERVLYVSSDRFTSQFVQSVRENRIAAFSSYYRQADLLIVDDVQFFGEKEKTQEEFFHIFNDLHQNGKQIFLCADRPPAEIPGIEERLLSRFQWGLSADIQRPDLETRIAILQRKAARQDIAVSPDVLELIAQRIDSNVRQLEGALTRLTALVQLDDRTLDLDTARRFLREHTDEGADALNADDIIEQVAEYFRLEKGDLLSRSRKQTVAQARQIAMYLCRELTDESYDHIGSRFGGRDHSTVIHAYRKIEEDLESDTELQDDISSLQSNLQDRSLSSSL”, “failed”; in that of “MVPSTFSRLKAARCLPVVLAALIFVGCGTHTPDQSTAYMQGTAQADSAFYLQQMQQSSDDTRINWQLLAIRALVKEGKTGQAVELFNQLPQELNDSQRREKTLLAVEIKLAQKDFAGAQNLLAKITPADLEQNQQARYWQAKIDASQGRPSIDLLRALIAQEPLLGAKEKQQNIDATWQALSSMTQEQANTLVINADENILQGWLDLQRVWFDNRNDPDMMKAGIADWQKRYPNNPGAKMLPTQLVNVKAFKPASTNKIALLLPLNGQAAVFGRTIQQGFEAAKNIGTQPVAAQVAAAPAADVAEQPQPQTADGVASPAQASVSDLTGDQPAAQPVPVSAPATSTAAVSAPANPSAELKIYDTSSQPLSQILSQVQQDGASIVVGPLLKNNVEELLKSNTPLNVLALNQPENIENRVNICYFALSPEDEARDAARHIRDQGKQAPLVLIPRSSLGDRVANAFAQEWQKLGGGTVLQQKFGSTSELRAGVNGGSGIALTGTPITPRATTDSGMTTNNPTLQTTPTDDQFTNNGGRVDAVYIVATPGEIAFIKPMIAMRNGSQSGATLYASSRSAQGTAGPDFRLEMEGLQYSEIPMLAGGNLPLMQQALSAVNNDYSLARMYAMGVDAWSLANHFSQMRQVQGFEINGNTGSLTANPDCVINRKLSWLQYQQGQVVPAS”, “not failed”.
Under “MVQEEASCELAPREKKLSIRGAIVKLGNPGFPDASARSLPLNLERLRPGGGGCPQSGSQTLWCSSSLAECSHAEVTSSEGSPRTLGLRGESRDFPVISREGASKAGGGRSGRGQRLPRGSPAGLAGLWLLLLQIARLMARQRTVAGIGPGALLALRALLVAAHPQCLDFRPPFRPPQPLSFCAQYSAFGCCTAEQDAALARRFRALETRMDAGVWATCAGYALDLLCQECSPYAAHLYDAEDPATPLRTVPGLCEDYCLDMWQTCRGLFRHLSPDRELWALESNRAKLCRYLSLDDTDYCFPSLLVNENLNSNLGRVVADAKGCLQLCLEEVANGLRNPVAMVHAGDGSHRFFVAEQVGLVWTYLPDRSRLEKPFLNVSQAVLTSPWEGDERGFLGLAFHPRFPHPSKLYVYYSVGVGFREWIRISEFRISEDDENTVDHGSERIILEIEEPASNHNGGQLLFGDDGFLYIFTGDGGMAGDPFGKFGNAQNKSALLGKVLRIDVDRKERGLPYGIPLDNPFVDDPEARPEVYALGVRNMWRCSFDRGDPVSGTHRGRLFCGDVGQNKYEEVDLVERGRNYGWRAREGFECYDRKLCANASLDDVLPIFAYPHKLGKSVTGGYVYRGCEYPNLNGLYIFGDFMSGRLMSLRENPESGQWKYSEVCMGRGQTCAFPGLINNYYPYIISFAEDEAGELYFMSTGVPSATAARGVIYKVTDPSRRAPPGKCKIRPAQVKVKSHLIPFVPKEKFIRTSESTPRPTARAPTKAPRRRRPTAAPPAPTLRPTKPARPTRRPGARKGGGRRRGRPGTAVPEPQNGSVRLVRPSGLSPGRGRVEVFIGGRWGTVCDDGWDIKAAAVVCRQLGFAHAVRAAKRAEFGEGRALRILLDDVRCAGSERNLLECAHAGVGTHNCKHEEDAGVECSHEDPDL” stands “failed”; under “MVQFQNTLIKFHALSFKNANLIYNAKLNKTCYKENSNTIILRIKMLTQEDVLNALKTIIYPNFEKDIVSFGFVKNITLHDDQLGLLIEIPSSSEETSAILRENISKAMQEKGVKALNLDIKTPPKPQAPKPTTKNLAKNIKHVVMISSGKGGVGKSTTSVNLSIALANLNQKVGLLDADVYGPNIPRMMGLQSADVIMDPSGKKLIPLKAFGVSVMSMGLLYDEGQSLIWRGPMLMRAIEQMLSDIIWGDLDVLVVDMPPGTGDAQLTLAQAVPLSAGITVTTPQIVSLDDAKRSLDMFKKLHIPIAGIVENMGSFVCEHCKKESEIFGSNSMSELLEAYHTQILAKLPLEPKVRLGGDRGEPIVISHPNSVSAKIFEKMAQDLSAFLERVKKEKLADNKDIQPTQTHACSH”, “failed”.

The values above are taken from a protein production outcome set (Wang et al. 2014).
